Data on one substance can be found in article PMC3540084.

Assay [1] addresses T1, recombinant human caspase-3 (human) (UniProt P42574).
T1 sequence: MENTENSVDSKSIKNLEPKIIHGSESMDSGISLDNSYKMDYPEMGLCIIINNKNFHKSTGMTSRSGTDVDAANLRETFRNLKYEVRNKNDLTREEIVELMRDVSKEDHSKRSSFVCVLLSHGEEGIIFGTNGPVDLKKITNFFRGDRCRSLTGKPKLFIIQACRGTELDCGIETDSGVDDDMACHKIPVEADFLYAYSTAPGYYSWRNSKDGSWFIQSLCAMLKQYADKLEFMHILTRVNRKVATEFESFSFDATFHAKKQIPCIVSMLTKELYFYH

In assay [2] the target is T2, recombinant human caspase-6 (human) (UniProt P55212).
T2 sequence: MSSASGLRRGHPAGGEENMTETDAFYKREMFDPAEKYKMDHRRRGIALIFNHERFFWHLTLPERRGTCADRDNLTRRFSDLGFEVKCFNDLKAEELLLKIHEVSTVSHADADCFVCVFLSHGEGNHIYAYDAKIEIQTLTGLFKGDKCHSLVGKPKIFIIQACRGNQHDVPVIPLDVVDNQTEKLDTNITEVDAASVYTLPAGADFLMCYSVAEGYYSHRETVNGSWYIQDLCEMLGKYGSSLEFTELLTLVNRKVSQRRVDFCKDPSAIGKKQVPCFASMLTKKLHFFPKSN

In assay [3] the target is recombinant human caspase-9 (human) (UniProt P55211).
For assay [4], the target named is T3, recombinant human caspase-7 (human) (UniProt P55210).
T3 sequence: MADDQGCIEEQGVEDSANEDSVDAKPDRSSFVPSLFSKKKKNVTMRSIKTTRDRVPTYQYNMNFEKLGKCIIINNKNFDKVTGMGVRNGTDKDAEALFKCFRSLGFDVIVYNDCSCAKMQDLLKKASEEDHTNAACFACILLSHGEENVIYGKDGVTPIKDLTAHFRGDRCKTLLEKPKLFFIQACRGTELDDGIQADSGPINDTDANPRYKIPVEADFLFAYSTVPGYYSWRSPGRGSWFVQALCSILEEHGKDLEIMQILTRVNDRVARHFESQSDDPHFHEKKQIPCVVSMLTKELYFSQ

UniProt P55211, sequence (P55211 whole entry): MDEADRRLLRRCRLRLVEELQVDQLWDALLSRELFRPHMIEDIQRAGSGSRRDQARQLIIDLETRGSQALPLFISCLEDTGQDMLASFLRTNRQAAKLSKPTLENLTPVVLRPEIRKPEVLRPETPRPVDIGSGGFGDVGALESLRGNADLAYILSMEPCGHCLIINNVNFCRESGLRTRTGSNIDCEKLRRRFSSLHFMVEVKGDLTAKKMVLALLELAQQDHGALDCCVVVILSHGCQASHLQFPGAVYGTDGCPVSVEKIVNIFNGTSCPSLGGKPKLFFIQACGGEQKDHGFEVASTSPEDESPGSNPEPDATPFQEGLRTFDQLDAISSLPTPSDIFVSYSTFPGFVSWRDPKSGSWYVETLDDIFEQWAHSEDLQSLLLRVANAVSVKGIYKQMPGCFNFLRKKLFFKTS

For “recombinant human IL-1Ra (from UniProt P18510 26-177) (natural protein)”, the i 0,5 of inhibition of rh-caspase-3 activity (release of AMC from Ac-DEVD-AMC, substrate at Km concentration, 22°C) in assay [1] was determined as 2.5 µM. In addition, the i 0,5 of inhibition of rh-caspase-6 activity (release of AMC from Ac-DEVD-AMC, substrate at Km concentration, 22°C) in assay [2] came out at 2.2 µM. Moreover, in assay [3], the i 0,5 of inhibition of rh-caspase-9 activity (release of AMC from Ac-LEHD-AMC, substrate at Km concentration, 22°C) amounted to 0.31 µM and the percent inhibition of rh-caspase-9 activity by 100 nM IL-1Ra came to 41%. In addition, the i 0,5 of inhibition of rh-caspase-7 activity (release of AMC from Ac-DEVD-AMC, substrate at Km concentration, 22°C) in assay [4] came to 1.3 µM.
